This note sets out measurements from paper PMC9982585.

The test concerns the target Type I Human Collagen (human) (UniProt P02452). Put plainly: fluorescence polarisation; Cy5.5-labelled insulin formulated in saline (control) or in aCH (SPADE), mixed with a Type I human collagen solution at a predetermined w/w ratio; read immediately after mixing on a Molecular Devices Flexstation 3 plate reader. On the technique in general: Polarisation of emitted light reports the rotation of a fluorescent probe.
Sequence of UniProt P02452 (P02452 162-1218, chain 1 of 2): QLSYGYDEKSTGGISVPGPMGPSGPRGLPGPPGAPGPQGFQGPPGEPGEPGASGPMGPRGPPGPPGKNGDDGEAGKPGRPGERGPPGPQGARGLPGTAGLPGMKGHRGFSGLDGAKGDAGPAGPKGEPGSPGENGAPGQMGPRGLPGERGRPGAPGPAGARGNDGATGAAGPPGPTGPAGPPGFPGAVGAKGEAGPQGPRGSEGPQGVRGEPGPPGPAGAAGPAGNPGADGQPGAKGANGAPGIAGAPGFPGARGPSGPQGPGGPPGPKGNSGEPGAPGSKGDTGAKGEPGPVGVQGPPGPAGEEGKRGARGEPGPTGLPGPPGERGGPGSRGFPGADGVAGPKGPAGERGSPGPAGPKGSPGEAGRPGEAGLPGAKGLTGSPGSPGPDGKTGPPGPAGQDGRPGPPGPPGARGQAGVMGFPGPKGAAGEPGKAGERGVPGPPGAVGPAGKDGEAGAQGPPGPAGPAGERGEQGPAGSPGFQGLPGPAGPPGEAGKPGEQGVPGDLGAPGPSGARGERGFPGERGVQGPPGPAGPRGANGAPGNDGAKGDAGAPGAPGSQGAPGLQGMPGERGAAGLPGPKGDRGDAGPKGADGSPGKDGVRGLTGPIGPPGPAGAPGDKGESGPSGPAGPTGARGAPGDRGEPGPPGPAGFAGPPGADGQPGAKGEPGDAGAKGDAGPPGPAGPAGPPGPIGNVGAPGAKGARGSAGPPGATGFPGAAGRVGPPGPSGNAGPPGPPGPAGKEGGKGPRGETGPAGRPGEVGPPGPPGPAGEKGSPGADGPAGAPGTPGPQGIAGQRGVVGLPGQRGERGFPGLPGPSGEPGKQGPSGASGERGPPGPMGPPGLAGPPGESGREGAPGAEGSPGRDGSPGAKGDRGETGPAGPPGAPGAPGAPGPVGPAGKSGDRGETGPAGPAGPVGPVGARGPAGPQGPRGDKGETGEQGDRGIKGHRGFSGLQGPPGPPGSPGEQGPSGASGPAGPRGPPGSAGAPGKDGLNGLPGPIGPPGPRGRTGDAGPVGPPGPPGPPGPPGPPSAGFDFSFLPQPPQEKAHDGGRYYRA
Sequence of UniProt P02452 (P08123 80-1119, chain 2 of 2, further chain): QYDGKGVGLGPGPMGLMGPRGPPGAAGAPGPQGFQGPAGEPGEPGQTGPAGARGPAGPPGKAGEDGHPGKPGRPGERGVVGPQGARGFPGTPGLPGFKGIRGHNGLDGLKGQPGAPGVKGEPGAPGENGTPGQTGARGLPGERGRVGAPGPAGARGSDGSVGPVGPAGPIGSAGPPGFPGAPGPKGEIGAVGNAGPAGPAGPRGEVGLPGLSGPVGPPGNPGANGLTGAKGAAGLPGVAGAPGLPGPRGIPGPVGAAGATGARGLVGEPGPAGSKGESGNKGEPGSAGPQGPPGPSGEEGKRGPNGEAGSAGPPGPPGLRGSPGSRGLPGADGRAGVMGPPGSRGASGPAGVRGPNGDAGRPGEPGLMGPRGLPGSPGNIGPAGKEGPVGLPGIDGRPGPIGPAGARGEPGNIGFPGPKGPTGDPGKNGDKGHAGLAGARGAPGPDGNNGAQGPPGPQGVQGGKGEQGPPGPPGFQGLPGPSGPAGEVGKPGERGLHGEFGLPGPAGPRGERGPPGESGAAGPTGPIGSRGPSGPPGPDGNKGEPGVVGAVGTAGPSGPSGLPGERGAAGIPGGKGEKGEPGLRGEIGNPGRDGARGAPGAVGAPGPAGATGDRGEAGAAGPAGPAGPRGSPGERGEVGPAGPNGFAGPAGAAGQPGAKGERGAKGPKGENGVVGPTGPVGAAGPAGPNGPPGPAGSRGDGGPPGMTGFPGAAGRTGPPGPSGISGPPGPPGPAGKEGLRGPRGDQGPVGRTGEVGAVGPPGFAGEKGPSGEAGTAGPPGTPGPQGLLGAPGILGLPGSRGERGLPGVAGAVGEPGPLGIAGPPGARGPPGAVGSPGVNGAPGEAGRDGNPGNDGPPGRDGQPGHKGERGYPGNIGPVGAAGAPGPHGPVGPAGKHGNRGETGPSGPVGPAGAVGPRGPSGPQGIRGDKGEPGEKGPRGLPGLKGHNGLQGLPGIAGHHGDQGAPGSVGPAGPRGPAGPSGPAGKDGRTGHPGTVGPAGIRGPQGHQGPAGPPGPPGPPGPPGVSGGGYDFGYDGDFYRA

Regarding “Cy 5.5 fluorescently-labeled insulin (ligand)”, the average polarisation of the saline control relative to the aCH (SPADE) formulation amounted to 1.5 fold.
